The text below walks through data of patent publication US20260022175A1 (Chugai, published 2026).

For assay [1], the target named is T1, human FcRn (human, UniProt P55899 24-290; P61769 21-119).
T1 construct: Prepared by the method of WO 2010/107110; also called hFcRn
Description: SPR Biacore T200, Ab captured via Fab-lambda, pH 6.0, 25C, steady state.
Description: The interaction between the generated antibodies and human FcRn was analyzed by the following method using Biacore T200. 50 mM Na-Phosphate, 150 mM NaCl, 0.05% Tween20 (pH 6.0) was used as the running buffer, and the assay was performed at 25° C. For the sensor chip, Series S SA (GE Healthcare) chips onto which CaptureSelect Human Fab-lambda Kinetics Biotin Conjugate (Thermo Fisher Scientific) was immobilized were used. The antibodies of interest were captured onto these chips and FcRn diluted in the running buffer was allowed to interact with them. Chips were regenerated with 10 mM Glycine-HCl (pH 1.5) and 25 mM NaOH, and assay was performed by repeatedly capturing antibodies. The dissociation constant for FcRn of each antibody was calculated using the steady state model, using Biacore T200 Evaluation Software 2.0.

Assay [2] deals with T2, human FcγRIIb extracellular domain with C-terminal His-tag (human, UniProt P31994 43-217).
T2 construct: extracellular domain; also called hFcγR IIb
T2 sequence (looked up): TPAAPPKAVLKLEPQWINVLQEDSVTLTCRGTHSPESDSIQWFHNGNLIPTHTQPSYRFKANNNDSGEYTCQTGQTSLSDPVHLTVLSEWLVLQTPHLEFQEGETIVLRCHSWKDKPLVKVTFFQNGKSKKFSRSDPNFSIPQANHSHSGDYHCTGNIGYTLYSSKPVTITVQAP
Description: SPR; binding amount divided by that of 04H1637-G1m/04L1610-lam1.

Assay [3] deals with T3, human FcγRIIIa F allotype extracellular domain with C-terminal His-tag (human, UniProt P08637 17-208).
T3 construct: extracellular domain; also called hFcγR IIIa F
Description: SPR Biacore T200, Ab captured via Fab-lambda, pH 7.4, 25C.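 Note: antibodies captured on a streptavidin chip carrying biotinylated anti-Fab-lambda, with each FcγR injected as analyte in phosphate buffer. KD fitted by 1:1 Langmuir or steady-state model depending on receptor.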
Description: (§1) The interaction between the generated antibodies and human FcγRs was analyzed by the following method using Biacore T200. 50 mM Na-Phosphate, 150 mM NaCl, 0.05% Tween20 (pH 7.4) was used as the running buffer, and the assay was performed at 25° C. For the sensor chips, Series S SA (GE Healthcare) chips onto which CaptureSelect Human Fab-lambda Kinetics Biotin Conjugate (Thermo Fisher Scientific) was immobilized were used. The antibodies of interest were captured onto these chips and each FcγR diluted in the running buffer was allowed to interact with them. Chips were regenerated with 10 mM Glycine-HCl (pH 1.5) and 25 mM NaOH, and assay was performed by repeatedly capturing antibodies. The dissociation constants KD (mol/L) for FcγRs of each antibody were calculated using Biacore T200 Evaluation Software 2.0, using the 1:1 Langmuir binding model for FcγRIa and FcγRIIIa and the steady state affinity model for FcγRIIa. For FcγRIIb, the binding amount of FcγRIIb per unit amount of antibody was calculated by correcting the binding amount of FcγRIIb obtained from the sensorgram obtained by the measurement with the amount of antibody captured onto the chip surface.

The target in assay [4] is T4, human FcγRIIIa V allotype extracellular domain with C-terminal His-tag (human, UniProt P08637 17-208).
T4 construct: extracellular domain; also called hFcγR IIIa V
Described as above.
Description: as §1

Assay [5] has as its target T5, human FcγRIa extracellular domain with C-terminal His-tag (human, UniProt P12314 16-292).
T5 construct: extracellular domain; also called hFcγR Ia; hFcγRIa
Described as above.
Description: as §1

Assay [6] concerns the target T6, human FcγRIIa H allotype extracellular domain with C-terminal His-tag (human, UniProt P12318 34-217).
T6 construct: extracellular domain; also called hFcγR IIa H
T6 sequence (looked up): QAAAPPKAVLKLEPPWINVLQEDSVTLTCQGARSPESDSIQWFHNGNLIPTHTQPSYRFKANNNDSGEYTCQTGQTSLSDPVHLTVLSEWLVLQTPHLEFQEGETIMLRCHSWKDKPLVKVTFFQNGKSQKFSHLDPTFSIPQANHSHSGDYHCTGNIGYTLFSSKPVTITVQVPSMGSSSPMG
The description is as above.
Description: as §1

The target of assay [7] is T7, human FcγRIIa R allotype extracellular domain with C-terminal His-tag (human, UniProt P12318 34-217).
T7 construct: extracellular domain; also called hFcγR IIa R
T7 sequence (looked up): T6 sequence (looked up) with H134R
The assay is described as above.
Description: as §1

Assay [8] addresses T3, human FcγRIIIa F allotype extracellular …. Description: SPR; KD of 04H1637-G1m/04L1610-lam1 divided by KD of variant.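 Note: biacore T200 SPR at 25 °C, antibodies captured on anti-Fab-lambda SA chip with receptor as analyte, running buffer pH 7.4 for FcγRs and pH 6.0 for FcRn.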
Assay [9] deals with T1, human FcRn. Described as above.
The target in assay [10] is T4, human FcγRIIIa V allotype extracellular …. The description is as above.
Assay [11] addresses T5, human FcγRIa extracellular domain with …. Described as above.
The target of assay [12] is T6, human FcγRIIa H allotype extracellular …. The assay is described as above.
The target in assay [13] is T7, human FcγRIIa R allotype extracellular …. The assay is described as above.
The target of assay [14] is T2, human FcγRIIb extracellular domain with …. Description: SPR; FcγRIIb at 1000 nM, bound amount per unit captured Ab.
Assay [15] addresses hFcγRIIIaV on hFcγRIIIaV-expressing Jurkat cells (human, UniProt P08637 17-254). In words: cell-based or functional assay.
Assay [16] addresses T8, human FcγRIIa R extracellular domain (human, UniProt P12318 34-217).
T8 construct: extracellular domain; also called hFcγR IIa R
T8 sequence (looked up): T6 sequence (looked up) with H134R
In words: SPR Biacore 8K+, antibody captured, FcγR as analyte, 1:1 Langmuir model.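 Note: antibodies captured on a streptavidin chip through a biotinylated anti-human Fab kappa reagent, with FcγR extracellular domains injected in pH 7.4 phosphate buffer at 25 °C.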

The target in assay [17] is T9, human FcγRIa extracellular domain (human, UniProt P12314 16-292).
T9 construct: extracellular domain; also called hFcγR Ia; hFcγRIa
Described as above.

Assay [18] deals with T10, human FcγRIIIa V extracellular domain (human, UniProt P08637 17-208).
T10 construct: extracellular domain; also called hFcγR IIIa V
The description is as above.

Assay [19] has as its target T11, human FcγRIIa H extracellular domain (human, UniProt P12318 34-217).
T11 construct: extracellular domain; also called hFcγR IIa H
T11 sequence (looked up): T6 sequence (looked up)
The assay is described as above.

The target in assay [20] is T12, human FcγRIIIa F extracellular domain (human, UniProt P08637 17-208).
T12 construct: extracellular domain; also called hFcγR IIIa F
The description is as above.

Assay [21] addresses T8, human FcγRIIa R extracellular domain. In words: SPR Biacore 8K+; KD of G1d divided by KD of this antibody.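 Note: antibodies captured on an anti-Fab-kappa streptavidin chip, soluble FcγR ectodomains flowed over, KD by steady-state fit for FcγRIIb and Langmuir kinetic model for the other receptors.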
Description: (§2) The interaction between the produced antibodies and human FcγRs was analyzed using Biacore 8K+ by the method below. For the running buffer, 50 mM Na-Phosphate, 150 mM NaCl, and 0.05% Tween20 (pH 7.4) was used, and measurement was performed at 25° C. The sensor chip used was a Series S SA chip (GE Healthcare) onto which CaptureSelect Human Fab-kappa Kinetics Biotin Conjugate (Thermo Fisher Scientific) was immobilized. An antibody of interest was captured onto this chip, and each FcγR diluted with the running buffer was allowed to interact with it. The chip was regenerated using 10 mM Glycine-HCl (pH 1.5), and repeatedly used to capture antibodies and perform measurement. The dissociation constants KD (mol/L) of each antibody for FcγRs were calculated using Biacore Insight Evaluation Software, with a steady state affinity model for the dissociation constant for FcγRIIb and a 1:1 Langmuir binding model for the dissociation constants for the other FcγRs (Table 48).
Assay [22] addresses T9, human FcγRIa extracellular domain. The assay is described as above.
Description: as §2
Assay [23] has as its target T13, human FcγRIIb extracellular domain (human, UniProt P31994 43-217).
T13 construct: extracellular domain; also called hFcγR IIb
T13 sequence (looked up): T2 sequence (looked up)
Described as above.
Description: as §2

For assay [24], the target named is T10, human FcγRIIIa V extracellular domain. Described as above.
Description: as §2
Assay [25] deals with T11, human FcγRIIa H extracellular domain. The description is as above.
Description: as §2
The target of assay [26] is T12, human FcγRIIIa F extracellular domain. Described as above.
Description: as §2
Assay [27] has as its target T13, human FcγRIIb extracellular domain. Description: SPR Biacore 8K+, antibody captured, FcγR as analyte, steady state affinity model.
Description: as §2
The target of assay [28] is T8, human FcγRIIa R extracellular domain. In words: SPR Biacore 8K+; KD for FcγRIIb divided by KD for this FcγR.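 Note: antibodies captured on an anti-human Fab kappa SA chip with soluble human FcγR ectodomains flowed over, FcγRIIb KD from steady-state fit, other FcγR KD from Langmuir model.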
The target of assay [29] is T10, human FcγRIIIa V extracellular domain. The description is as above.
For assay [30], the target named is T11, human FcγRIIa H extracellular domain. The description is as above.
Assay [31] deals with T12, human FcγRIIIa F extracellular domain. The description is as above.
In assay [32] the target is T14, hFcγRIIaH on hFcγRIIaH-expressing Jurkat cells (human, UniProt P12318 34-317).
T14 sequence (looked up): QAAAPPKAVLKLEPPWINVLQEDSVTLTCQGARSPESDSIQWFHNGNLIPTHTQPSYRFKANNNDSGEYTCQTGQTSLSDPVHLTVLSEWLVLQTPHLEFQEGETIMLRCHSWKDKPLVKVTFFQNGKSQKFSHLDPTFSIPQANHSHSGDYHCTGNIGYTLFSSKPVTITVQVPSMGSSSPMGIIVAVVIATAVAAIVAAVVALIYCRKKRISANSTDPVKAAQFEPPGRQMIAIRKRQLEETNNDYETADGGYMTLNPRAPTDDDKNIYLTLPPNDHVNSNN
Description: cell-based or functional assay.

Where a chain is given by its changes, count along the chain named.

T10 sequence (P08637 17-208 F176V limits assumed): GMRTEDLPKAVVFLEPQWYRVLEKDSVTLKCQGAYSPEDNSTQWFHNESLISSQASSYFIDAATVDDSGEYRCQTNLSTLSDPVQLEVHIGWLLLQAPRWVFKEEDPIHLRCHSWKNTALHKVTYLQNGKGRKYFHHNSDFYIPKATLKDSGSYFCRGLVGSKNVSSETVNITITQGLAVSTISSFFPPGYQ
T12 sequence (P08637 17-208): as the sequence (P08637 17-208 F176V limits assumed) above, with V160F counted along it
T1 sequence (P55899 24-290 limits assumed, chain 1 of 2): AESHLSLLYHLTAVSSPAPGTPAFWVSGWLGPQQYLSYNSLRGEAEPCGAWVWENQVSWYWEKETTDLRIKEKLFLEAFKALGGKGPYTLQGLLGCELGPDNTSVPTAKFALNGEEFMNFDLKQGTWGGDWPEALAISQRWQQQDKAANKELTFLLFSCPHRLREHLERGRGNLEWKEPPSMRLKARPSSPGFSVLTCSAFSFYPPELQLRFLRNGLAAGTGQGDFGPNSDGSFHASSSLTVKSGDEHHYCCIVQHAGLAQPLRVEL
T1 sequence (P61769 21-119 limits assumed, chain 2 of 2): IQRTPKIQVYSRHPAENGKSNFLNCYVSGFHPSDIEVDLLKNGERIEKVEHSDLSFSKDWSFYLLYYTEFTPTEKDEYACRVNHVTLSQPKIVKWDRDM
T4 sequence (P08637 17-208 F176V): as the sequence (P08637 17-208 F176V limits assumed) above
T5 sequence (P12314 16-292): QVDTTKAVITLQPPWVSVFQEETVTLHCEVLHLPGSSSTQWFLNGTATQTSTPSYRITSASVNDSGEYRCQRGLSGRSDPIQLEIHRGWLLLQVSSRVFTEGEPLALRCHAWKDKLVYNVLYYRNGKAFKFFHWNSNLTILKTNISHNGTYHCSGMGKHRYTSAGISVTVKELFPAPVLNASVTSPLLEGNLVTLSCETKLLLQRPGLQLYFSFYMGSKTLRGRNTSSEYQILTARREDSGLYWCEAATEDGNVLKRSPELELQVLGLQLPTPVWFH
T9 sequence (P12314 16-292): as above
T3 sequence (P08637 17-208): as the sequence (P08637 17-208 F176V limits assumed) above, with V160F counted along it
Chain of hFcγRIIIaV on hFcγRIIIaV-expressing Jurkat cells (P08637 17-254, form in doubt): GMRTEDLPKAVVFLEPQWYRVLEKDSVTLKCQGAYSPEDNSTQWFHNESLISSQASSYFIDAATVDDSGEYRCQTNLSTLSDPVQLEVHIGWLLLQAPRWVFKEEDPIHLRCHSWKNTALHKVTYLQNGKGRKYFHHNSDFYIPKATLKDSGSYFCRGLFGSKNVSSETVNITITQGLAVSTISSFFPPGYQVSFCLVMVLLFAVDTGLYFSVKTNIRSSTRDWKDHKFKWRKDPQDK

B1: 04H1637-G1m/04L1610-lam1 (antibody, human IgG1, lambda)
heavy: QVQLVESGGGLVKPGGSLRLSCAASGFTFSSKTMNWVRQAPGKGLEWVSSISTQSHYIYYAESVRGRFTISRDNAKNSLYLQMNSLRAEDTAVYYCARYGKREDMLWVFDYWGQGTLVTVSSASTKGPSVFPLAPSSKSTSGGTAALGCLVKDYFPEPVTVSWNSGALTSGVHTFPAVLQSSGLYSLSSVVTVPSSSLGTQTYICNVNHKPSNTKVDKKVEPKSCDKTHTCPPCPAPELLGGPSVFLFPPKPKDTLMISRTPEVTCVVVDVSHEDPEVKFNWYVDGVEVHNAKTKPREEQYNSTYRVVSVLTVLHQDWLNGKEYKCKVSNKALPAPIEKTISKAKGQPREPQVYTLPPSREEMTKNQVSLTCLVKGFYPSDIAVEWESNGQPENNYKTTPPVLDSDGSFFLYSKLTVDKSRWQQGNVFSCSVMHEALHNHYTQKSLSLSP
light: QSALTQPPSASGSPGQSVTISCEGPSTGVGDYNWVHWYQQHPGKAPKLMIYFTSKKPSGVPDRFSGSKSGNTASLTVSGLQAEDEADYYCQTYAAPLGPMFGGGTKLTVLGQPKAAPSVTLFPPSSEELQANKATLVCLISDFYPGAVTVAWKADSSPVKAGVETTTPSKQSNNKYAASSYLSLTPEQWKSHRSYSCQVTHEGSTVEKTVAPTECS
In the case of B1, the Kd with human FcRn [1] is 1300 nM; in assay [3], 1400 nM; in assay [4], 240 nM; in assay [5], 0.049 nM; in assay [6], 1500 nM; in [7], 2000 nM. Besides, the Relative binding amount in assay [2] was determined as 1. Further, the “Relative value to KD between G1m and hFcγRs” value in assay [8], in [10], in assay [11], in [12] and in [13] was 1 in each case. Moreover, the “Relative value to KD between G1m and hFcRn” value with human FcRn [9] came to 1. The molecule further registered a Binding amount in assay [14] of 0.008.

B2: H240-Kn498/L73-k0//H240-Hl518/L73-k0 (antibody, human IgG1, kappa)
heavy 1: QDQLVQSGAEVKKPGASVKVSCKASGFNIKDTYIQWVRQAPGQGLEWMGRIDPLRKQTKYREKFEGRVTITADTSTNTAYMELSSLRSEDTAVYYCVRSGREFDYWGQGTLVTVSSASTKGPSVFPLAPSSKSTSGGTAALGCLVKDYFPEPVTVSWNSGALTSGVHTFPAVLQSSGLYSLSSVVTVPSSSLGTQTYICNVNHKPSNTKVDKKVEPKSCDKTHTCPPCPAPEFQWGPMVFLFPPKPKDVLMISRTPEVTCVVVDVSDEEPEVKFNWYVDGVEVHNAKTKPREEQYNATYRVVSVLPVLHQDWLNGKEYKCKVSNKALPMPIEKTISKAKGQPREPQVCTLPPSRDELTKNQVSLWCLVKGFYPSDIAVEWESNGQPENNYKTTPPVLDSDGSFFLYSKLTVDKSRWQQGNVFSCSVMHEALHNHYTQKSLSLSP
heavy 2: QDQLVQSGAEVKKPGASVKVSCKASGFNIKDTYIQWVRQAPGQGLEWMGRIDPLRKQTKYREKFEGRVTITADTSTNTAYMELSSLRSEDTAVYYCVRSGREFDYWGQGTLVTVSSASTKGPSVFPLAPSSKSTSGGTAALGCLVKDYFPEPVTVSWNSGALTSGVHTFPAVLQSSGLYSLSSVVTVPSSSLGTQTYICNVNHKPSNTKVDKKVEPKSCDKTHTCPPCPAPELLGGPSVFLFPPKPKDVLMISRTPEVTCVVVDVSHEEPEVKFNWYVDGVEVHNAKTKPREEQYNATYRVVSVLPVLHQDWLNGKEYKCKVSNDALPMPIEETISKAKGQPREPQVYTLPPSRCELTKNQVSLSCAVKGFYPSDIAVEWESNGQPENNYKTTPPVLDSDGSFFLVSKLTVDKSRWQQGNVFSCSVMHEALHNHYTQKSLSLSP
light: DIQMTQSPSSLSASVGDRVTITCRASQDIHKYIAWYQQKPGQAPRLLIQYTSTLQPGVPSRFSGSGSGTDYTFTISSLQPEDIATYYCLQYEQLRTFGGGTKVEIKRTVAAPSVFIFPPSDEQLKSGTASVVCLLNNFYPREAKVQWKVDNALQSGNSQESVTEQDSKDSTYSLSSTLTLSKADYEKHKVYACEVTHQGLSSPVTKSFNRGEC
notes: also called EGL-ART12; ART12
For the molecule B2, in assay [15], the “EC50 value (hFcγRIIIaV ADCC Reporter Bioassay, Hepa1-6/hEREG target cells)” value turned out to be 0.000304 µg/mL. Moreover, the Kd was 1720 nM in assay [16]; 0.0261 nM in [17]; 2.27 nM in [18]; 366 nM in assay [19]; 5.12 nM in assay [20]; 22100 nM in [27]. The “Relative value to KD between G1d and hFcgRs” value was determined as 1 in assay [21]; 3.4 in assay [22]; 0.5 in assay [23]; 158 in assay [24]; 3.1 in [25]; 578 in assay [26]. Besides, the “A/I ratio (KD for FcγRIIb divided by KD for each FcγR)” value in assay [28] is 12.8; in assay [29], 9720; in assay [30], 60.3; in assay [31] it was 4310. Besides, the “EC50 value (hFcγRIIaH ADCP Reporter Bioassay, Hepa1-6/hEREG target cells)” value in assay [32] is 0.085 µg/mL.
